# What was measured:
# [1] = tested on: Factor IX deficient plasma; test: coagulant activity of XIa-activated IXa proteins; assay type: biochemical
# [2] = biological target: T1, factor VIIIa (Homo sapiens, UniProt P00451); test: inhibition of Xa generation by active site-blocked (DEGR) IXa proteins, absence of phospholipid (Kd,app for VIIIa); assay type: biochemical
# T1 construct: purchased Dr. Leon Hoyer (American Red Cross, Rockville, Md.)
# T1 sequence (P00451 20-759 limits assumed): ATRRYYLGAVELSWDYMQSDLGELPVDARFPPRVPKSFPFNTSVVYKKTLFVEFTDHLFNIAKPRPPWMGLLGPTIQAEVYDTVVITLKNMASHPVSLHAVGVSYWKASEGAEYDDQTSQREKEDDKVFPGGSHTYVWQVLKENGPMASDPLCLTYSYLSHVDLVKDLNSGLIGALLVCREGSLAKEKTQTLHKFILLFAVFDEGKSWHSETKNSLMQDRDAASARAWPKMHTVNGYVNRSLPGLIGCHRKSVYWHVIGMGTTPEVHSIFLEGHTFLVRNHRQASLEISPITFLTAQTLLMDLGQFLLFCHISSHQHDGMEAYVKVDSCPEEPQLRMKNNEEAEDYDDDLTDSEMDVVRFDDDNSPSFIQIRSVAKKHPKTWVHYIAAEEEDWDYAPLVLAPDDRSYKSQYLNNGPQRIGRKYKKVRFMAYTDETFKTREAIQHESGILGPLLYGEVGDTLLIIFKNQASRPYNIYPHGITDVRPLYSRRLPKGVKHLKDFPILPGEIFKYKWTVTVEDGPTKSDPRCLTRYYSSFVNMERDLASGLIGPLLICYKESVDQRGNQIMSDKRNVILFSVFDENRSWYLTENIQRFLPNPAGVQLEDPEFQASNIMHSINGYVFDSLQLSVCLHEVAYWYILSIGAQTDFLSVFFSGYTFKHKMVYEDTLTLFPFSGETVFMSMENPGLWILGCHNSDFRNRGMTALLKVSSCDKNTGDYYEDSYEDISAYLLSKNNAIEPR
# T1 sequence (P00451 1668-2351 limits assumed): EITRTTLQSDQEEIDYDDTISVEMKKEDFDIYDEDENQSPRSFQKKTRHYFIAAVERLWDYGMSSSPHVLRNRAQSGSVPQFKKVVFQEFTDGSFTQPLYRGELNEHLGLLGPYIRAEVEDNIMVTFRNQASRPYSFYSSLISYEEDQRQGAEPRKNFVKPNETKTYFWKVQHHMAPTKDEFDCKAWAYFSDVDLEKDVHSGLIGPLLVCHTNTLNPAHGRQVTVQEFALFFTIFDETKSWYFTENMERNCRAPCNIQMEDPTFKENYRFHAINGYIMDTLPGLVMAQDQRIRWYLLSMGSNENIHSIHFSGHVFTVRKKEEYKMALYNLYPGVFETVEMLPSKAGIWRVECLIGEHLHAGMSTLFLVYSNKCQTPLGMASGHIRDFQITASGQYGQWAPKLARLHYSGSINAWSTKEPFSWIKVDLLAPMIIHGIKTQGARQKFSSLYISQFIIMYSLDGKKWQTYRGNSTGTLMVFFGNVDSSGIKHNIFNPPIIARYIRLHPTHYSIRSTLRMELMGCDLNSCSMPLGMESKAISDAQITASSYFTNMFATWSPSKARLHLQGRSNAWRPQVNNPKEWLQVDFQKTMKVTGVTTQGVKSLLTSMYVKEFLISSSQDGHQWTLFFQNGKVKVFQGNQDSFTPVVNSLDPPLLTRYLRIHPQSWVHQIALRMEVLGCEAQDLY
# Procedure: Apparent Kds of factor VIIIa binding to various active site-blocked factor IXa proteins were determined from inhibition experiments as detailed in Mathur et al., 1997, supra. […] Reactions were carried out for 2 min and the rates of factor X activation were measured as outlined above.
# Various DEGR-ck-inhibited factor IXa proteins were prepared for these experiments as follows. IXNP, IXWT, and each mutant factor IX at 200 μg/ml was activated by factor XIa (2 μg/ml) for 90 min. in TBS, pH 7.4 (0.05 M Tris, 0.15 M NaCl, pH 7.4) containing 5 mM Ca^2+.
# Enzymol. 74, 481–508 given below:
# [formula] where y is the rate of Xa formation in the presence of a given concentration of DEGR-IXa protein represented by x, a is the maximum rate of Xa formation in the absence of DEGR-IXa, and s is the slope factor. Each point was weighted equally and the data were fitted to Equation 1 using the nonlinear regression analysis program obtained from Erithacus Software (GraFit). […] To obtain the Kd,app values for the interaction of DEGR-IXa proteins with factor VIIIa, the following equation was used, as described by Cheng and Prusoff, 1973, Biochem. Pharmacol. 22, 3099–3108 and further discussed by Craig, 1993, Trends Pharmacol. Sci. 6, 68–71.
substance,measurement,setting,value
IXaV331A: activated factor IX mutant V331A,coagulant activity as compared to IXaNP,[1],~6%
same,fold-reduction in affinity for factor VIIIa compared with DEGR-IXaWT,[2]; absence of phospholipid,7 fold
same,Kd,"[2]; active site-blocked (DEGR) IXa proteins, no phospholipid, read-out: Kd, app for interaction with factor VIIIa, PL-minus system",1350 ± 310 nM

# Source: US7109170B2, “Region of factor IXa protease domain that interacts with factor VIIIa and methods therefor” (Saint Louis University, priority 1999, dated 2006)
